Results from PMC8156982, “DNA Aptamers against Vaccinia-Related Kinase (VRK) 1 Block Proliferation in MCF7 Breast Cancer Cells”.

Assays:
[1] = molecular target: T1, VRK1 (vaccinia-related kinase 1), recombinant (UniProt Q99986 1-396); assay: ELONA; 1 mM Mg2+; 10 mM sodium phosphate, 0.15 M NaCl, pH 7.5, 1 mM MgCl2, 0.2% BSA; 37 C, 1 h; aptamers denatured at 95 C 10 min then ice 10 min; VRK1 coated on plate (20 or 200 ng/well); conditions: protein: recombinant, tags: 6xHis, label: digoxigenin (5' when made with primer F5)
T1 sequence: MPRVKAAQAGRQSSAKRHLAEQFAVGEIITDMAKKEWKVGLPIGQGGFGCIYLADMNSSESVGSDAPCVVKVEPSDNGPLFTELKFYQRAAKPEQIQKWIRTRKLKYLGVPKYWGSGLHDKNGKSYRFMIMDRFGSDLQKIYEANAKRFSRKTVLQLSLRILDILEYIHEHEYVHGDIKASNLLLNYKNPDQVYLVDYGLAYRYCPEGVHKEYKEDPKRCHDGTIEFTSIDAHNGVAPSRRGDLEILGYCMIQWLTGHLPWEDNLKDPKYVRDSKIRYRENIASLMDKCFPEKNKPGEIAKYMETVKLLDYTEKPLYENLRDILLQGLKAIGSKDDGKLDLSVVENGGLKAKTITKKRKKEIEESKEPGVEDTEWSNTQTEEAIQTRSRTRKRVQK

[2] = molecular target: T1, VRK1 (vaccinia-related kinase 1), …; assay: ELONA; 80 nM; at least twice control; 10 mM sodium phosphate, 0.15 M NaCl, pH 7.5, 1 mM MgCl2, 0.2% BSA; 37 C, 1 h; aptamers denatured at 95 C 10 min then ice 10 min; VRK1 coated on plate (20 or 200 ng/well); conditions: protein: recombinant; tags: 6xHis; label: 5' digoxigenin on both chains; PCR duplex denatured at 95 C and cooled on ice
[3] = molecular target: T1, VRK1 (vaccinia-related kinase 1), …; assay: ELONA; 40 nM PCR-labeled chain; 10 mM sodium phosphate, 0.15 M NaCl, pH 7.5, 1 mM MgCl2, 0.2% BSA; 37 C, 1 h; aptamers denatured at 95 C 10 min then ice 10 min; VRK1 coated on plate (20 or 200 ng/well); conditions: protein: recombinant; tags: 6xHis; label: digoxigenin (5' when made with primer R5); no G-quadruplex (predicted)
[4] = possible two G-quadruplexes (predicted)

B1: apVRKF8 (V#F8) (ssDNA)
DNA: ACGCTCGGATGCCACTACAGGGAGGGGGGGGGAAAGTAAGCGGGGGGTCGGCGGCCTCATGGACGTGCTGGTGA
Binder B1 has a Kd [1, 4] of 45.8 ± 5.01 nM.

B2: apVRK8 (F+R chains) (mixed)
DNA 1: ACGCTCGGATGCCACTACAGGGAGGGGGGGGGAAAGTAAGCGGGGGGTCGGCGGCCTCATGGACGTGCTGGTGA
DNA 2: TCACCAGCACGTCCATGAGGCCGCCGACCCCCCGCTTACTTTCCCCCCCCCTCCCTGTAGTGGCATCCGAGCGT
In the case of B2, the binding signal [2] is reported as > 2 fold over control.

B3: apVRKR28 (V#R28) (ssDNA)
DNA: TCACCAGCACGTCCATGAGGCAAGAAACCCACCCACCGCCCCCATCCGCCGTCCCTGTAGTGGCATCCGAGCGT
B3: binds [3].

B4: apVRK33 (F+R chains) (mixed)
DNA 1: ACGCTCGGATGCCACTACAGGTTGCGAGGTGGGGGGTGGGTAGGGTGGGAAGTGCCCTCATGGACGTGCTGGTGA
DNA 2: TCACCAGCACGTCCATGAGGGCACTTCCCACCCTACCCACCCCCCACCTCGCAACCTGTAGTGGCATCCGAGCGT
With B4 the binding signal [2] was > 2 fold over control.

B5: apVRKF33 (V#F33) (ssDNA)
DNA: ACGCTCGGATGCCACTACAGGTTGCGAGGTGGGGGGTGGGTAGGGTGGGAAGTGCCCTCATGGACGTGCTGGTGA
B5 gave a Kd [1, 4] of 129 ± 55.6 nM.

B6: apVRKF28 (V#F28) (ssDNA)
DNA: ACGCTCGGATGCCACTACAGGGACGGCGGATGGGGGCGGTGGGTGGGTTTCTTGCCTCATGGACGTGCTGGTGA
B6 showed a Kd ([1]; possible one G-quadruplex (predicted)) of 60.1 ± 7.05 nM.

B7: apVRK28 (F+R chains) (mixed)
DNA 1: ACGCTCGGATGCCACTACAGGGACGGCGGATGGGGGCGGTGGGTGGGTTTCTTGCCTCATGGACGTGCTGGTGA
DNA 2: TCACCAGCACGTCCATGAGGCAAGAAACCCACCCACCGCCCCCATCCGCCGTCCCTGTAGTGGCATCCGAGCGT
With B7 the binding signal [2] was > 2 fold over control.
